Data published in the Immune Epitope Database (IEDB).

Columns and labels:
HLA-A*02:01 = test: IEDB peptide-MHC binding, purified MHC/direct/fluorescence; filed as Kd, often an IC50 or EC50 that approximates it; ≥ and ≤ were set here for values at or beyond the usual limits of such assays
HLA-B*27:05 [1] = test: as above
HLA-B*08:01 = test: as above; settings: source organism: Rickettsia sibirica
HLA-A*31:01 [2] = test: as above
HLA-B*40:01 [3] = test: as above
HLA-A*30:01 = test: as above; settings: source organism: Rickettsia sibirica
HLA-B*07:02 [4] = test: as above
HLA-A*26:01 [5] = test: as above
HLA-B*44:02 = test: as above; settings: source organism: Rickettsia sibirica
HLA-B*58:01 = test: as above
HLA-A*69:01 = test: as above
HLA-B*15:01 [6] = test: as above
HLA-A*01:01 = test: as above
HLA-A*03:01 [7] = test: as above
HLA-B*83:01 = test: IEDB peptide-MHC binding, purified MHC/competitive/fluorescence; filed as Kd, often an IC50 or EC50 that approximates it; ≥ and ≤ were set here for values at or beyond the usual limits of such assays
HLA-B*15:42 = test: as above
HLA-A*31:01 [8] = test: as above; settings: source organism: Influenza A virus H3N2
HLA-A*68:23 = test: as above
HLA-B*45:06 = test: as above
HLA-A*03:01 [9] = test: as above; settings: source organism: Influenza A virus H3N2
HLA-B*48:01 = test: IEDB peptide-MHC binding, purified MHC/direct/fluorescence; filed as Kd, often an IC50 or EC50 that approximates it; ≥ and ≤ were set here for values at or beyond the usual limits of such assays
HLA-B*18:01 = test: as above
HLA-A*11:01 = test: as above
HLA-B*15:17 = test: as above
HLA-B*46:01 = test: as above
HLA-B*57:01 = test: as above
HLA-A*68:02 = test: as above
HLA-A*26:03 [10] = test: as above; settings: source organism: Burkholderia mallei ATCC 23344
HLA-B*15:01 [11] = test: IEDB peptide-MHC binding, purified MHC/competitive/fluorescence; filed as Kd, often an IC50 or EC50 that approximates it; ≥ and ≤ were set here for values at or beyond the usual limits of such assays
HLA-C*06:02 = test: IEDB peptide-MHC binding, purified MHC/direct/fluorescence; filed as Kd, often an IC50 or EC50 that approximates it; ≥ and ≤ were set here for values at or beyond the usual limits of such assays; settings: source organism: Yersinia pseudotuberculosis IP 31758
HLA-B*40:01 [12] = test: IEDB peptide-MHC binding, purified MHC/competitive/fluorescence; filed as Kd, often an IC50 or EC50 that approximates it; ≥ and ≤ were set here for values at or beyond the usual limits of such assays; settings: source organism: Yersinia pseudotuberculosis IP 31758
HLA-A*02:06 = test: as above; settings: source organism: Ehrlichia chaffeensis
HLA-B*27:05 [13] = test: as above; settings: source organism: Ehrlichia chaffeensis
HLA-B*07:02 [14] = test: as above; settings: source organism: Ehrlichia chaffeensis
HLA-A*26:01 [15] = test: as above; settings: source organism: Ehrlichia chaffeensis
HLA-B*35:01 = test: as above; settings: source organism: Ehrlichia chaffeensis
HLA-A*26:03 [16] = test: as above; settings: source organism: Ehrlichia chaffeensis
[17] = source organism: Rickettsia sibirica
[18] = source organism: Influenza A virus H3N2
[19] = source organism: Burkholderia mallei
[20] = source organism: Yersinia pseudotuberculosis IP 31758
[21] = source organism: Brucella abortus 2308

Sequence: AIKPITDQF
- Kd (HLA-A*02:01; [17]): ≥ 20 µM
- Kd (HLA-B*27:05 [1]; [17]): ≥ 20 µM
- Kd (HLA-B*08:01): ≥ 20 µM
- Kd (HLA-A*31:01 [2]; [17]): ≥ 20 µM
- Kd (HLA-B*40:01 [3]; [17]): ≥ 20 µM
- Kd (HLA-A*30:01): 8.09 µM
- Kd (HLA-B*07:02 [4]; [17]): 5.83 µM
- Kd (HLA-A*26:01 [5]; [17]): ≥ 20 µM
- Kd (HLA-B*44:02): ≥ 20 µM
- Kd (HLA-B*58:01; [17]): ≥ 10 µM
- Kd (HLA-A*69:01; [17]): ≥ 20 µM
- Kd (HLA-B*15:01 [6]; [17]): ≥ 20 µM
- Kd (HLA-A*01:01; [17]): ≥ 20 µM
- Kd (HLA-A*03:01 [7]; [17]): ≥ 20 µM

Sequence: FSFGGFTFK
- Kd (HLA-B*83:01; [18]): ≥ 5 µM
- Kd (HLA-B*15:42; [18]): ≥ 5 µM
- Kd (HLA-A*31:01 [8]): ≤ 0.001 µM
- Kd (HLA-A*68:23; [18]): 0.0219 µM
- Kd (HLA-B*45:06; [18]): ≥ 5 µM
- Kd (HLA-A*03:01 [9]): 0.0037 µM

Sequence: IQRRGAQFQ
- Kd (HLA-B*48:01; [19]): ≥ 20 µM
- Kd (HLA-B*18:01; [19]): ≥ 20 µM
- Kd (HLA-A*11:01; [19]): ≥ 20 µM
- Kd (HLA-A*02:01; [19]): ≥ 20 µM
- Kd (HLA-B*15:17; [19]): ≥ 20 µM
- Kd (HLA-B*27:05 [1]; [19]): ≥ 20 µM
- Kd (HLA-B*46:01; [19]): ≥ 20 µM
- Kd (HLA-A*31:01 [2]; [19]): ≥ 20 µM
- Kd (HLA-B*40:01 [3]; [19]): ≥ 20 µM
- Kd (HLA-B*07:02 [4]; [19]): ≥ 20 µM
- Kd (HLA-A*26:01 [5]; source organism: Burkholderia mallei ATCC 23344): ≥ 20 µM
- Kd (HLA-B*58:01; [19]): ≥ 20 µM
- Kd (HLA-B*57:01; [19]): ≥ 20 µM
- Kd (HLA-A*68:02; [19]): ≥ 20 µM
- Kd (HLA-A*01:01; [19]): ≥ 20 µM
- Kd (HLA-A*03:01 [7]; [19]): ≥ 20 µM
- Kd (HLA-A*26:03 [10]): ≥ 20 µM
- Kd (HLA-B*15:01 [11]; source organism: Burkholderia mallei SAVP1): 3.18 µM

Sequence: RQMRASAPL
- Kd (HLA-C*06:02): ≥ 20 µM
- Kd (HLA-B*83:01; [20]): ≥ 5 µM
- Kd (HLA-B*15:42; [20]): ≥ 5 µM
- Kd (HLA-A*68:23; [20]): 0.0024 µM
- Kd (HLA-B*40:01 [12]): 0.0181 µM
- Kd (HLA-B*45:06; [20]): ≥ 5 µM
- Kd (HLA-B*15:01 [11]; [20]): 0.145 µM

Sequence: RVYKNYDPR
- Kd (HLA-B*48:01; [21]): ≥ 20 µM
- Kd (HLA-B*18:01; [21]): ≥ 20 µM
- Kd (HLA-A*11:01; [21]): 0.101 µM
- Kd (HLA-A*02:01; [21]): ≥ 20 µM
- Kd (HLA-B*15:17; [21]): ≥ 20 µM
- Kd (HLA-B*46:01; [21]): ≥ 20 µM
- Kd (HLA-A*31:01 [2]; [21]): 0.0513 µM
- Kd (HLA-B*40:01 [3]; [21]): ≥ 20 µM
- Kd (HLA-B*58:01; [21]): ≥ 20 µM
- Kd (HLA-B*57:01; [21]): ≥ 20 µM
- Kd (HLA-A*68:02; [21]): ≥ 20 µM
- Kd (HLA-A*69:01; [21]): ≥ 20 µM
- Kd (HLA-B*15:01 [6]; [21]): ≥ 20 µM
- Kd (HLA-A*01:01; [21]): ≥ 20 µM
- Kd (HLA-A*02:06): ≥ 20 µM
- Kd (HLA-B*27:05 [13]): 1.06 µM
- Kd (HLA-B*07:02 [14]): ≥ 20 µM
- Kd (HLA-A*26:01 [15]): ≥ 20 µM
- Kd (HLA-B*35:01): 1.67 µM
- Kd (HLA-A*26:03 [16]): ≥ 20 µM
